Source: the nanobody polyreactivity screen of Harvey et al. (2022)

Assay: yeast display, Sf9 membrane polyspecificity reagent, FACS + sequencing; frameworks hold sequencing errors
Method in brief: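 Galactose induction of a Saccharomyces cerevisiae BJ5465 synthetic nanobody display library ran 36–48 hours. The cells were then stained for 1 hour at 4 °C with 10% biotinylated, detergent-solubilized Sf9 membrane reagent, pulled down on streptavidin microbeads and FACS-sorted into low and high (top ~1%) gates on expression and reagent-binding fluorescence. Labels for polyreactivity follow the gate of origin.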

Row | Sequence | polyreactivity (PSR sort gate)
1 | QVQLEESGGGLVQAGGSLRLSCAASVSIFGVNVMGWYRQAPGKERELVAAISSGGSTNYADSVKGRFTISGDNEKKTVYLLMISLKPDDTAVYFCIAGLGRLYDYWGQGTQVTVSS | low polyreactivity
2 | QVQLEESGGGLVQAGGSLRLSCAATGSTFYDYAMGWYRQAPGKERELVASITFTGGSTYYADSVKGRFTISRDNAKNTVYLQMISLKPEDTAVYFCAAYGWRVHDRWFFERDYWGLGTQVTVSS | high polyreactivity
3 | QVQLEESGGGLVQAGGSLRLSCAATGYTFEANAMGWYRQAPGKERELVAVITWTGGSTYYADSVKGRFTISRDNAKYTVYLQMNSLKPEDTAVYYCAADGVVPGRFFWPAHEYDFWGQGTQVTVSS | low polyreactivity
4 | QVQLEESGGGLVQAGGSLRLSCAAYGRTFPNYAMGRYRQAPGKEREMVADISSSGVSTYYADSVKGRFTISRDNAKNTVYLKMNSLKPEDTAVYYCAARSWWFQRGEYWGQGTQVTVSS | high polyreactivity
5 | QVQLEESGGGLVQAGGSLRLSCAPSGSIFFYYAMGWYRQAPGKERELVAAITFTGGSTYYADSVKGRFTISRDNANNTVYLQMNSLNPEDTAVSYCAADWYYGDEYEYWGQGTQVTVSS | high polyreactivity
6 | QVQLEESGGGLVQAGGSLRLSCDASGSTLLYYAMGWYRPAPGKERELVAAISWRGGSTYYADSVKGRFTISRDNAKNTVYLQMNSLKPEDTAVYYCAARSLRLVGPYYYWGEGTQVTVSS | high polyreactivity
7 | QVQLEESGGGLVQAGGSLRLSFAASGRTFWWYAMGWYRQAPGKERELVAAITWSGGSTYYADSVKGRFTISRDNAKNTVYLQMNSLKPEDTAVYYCAAYVHNKYDYWGQGTQVTVSS | low polyreactivity
8 | QVQLEESGGGLVQAGGSLRLSSAASGIIFGTNAMGWYRQAPGKERELVAGITSSGDSTYYADSVKGRFTISRDNPKNTVYLQMNSLKPEDTAVYYCARDIRTREFDSWGQGTQVTVSS | low polyreactivity
9 | QVQLEESGGGLVQAGGSLRLSSAASGSIFGVNPMGWYRQTPGKERELVARINWSSGRTYYADSVKGRFTISRDNAKNTVYLQMNCLKPEDTAVYYCAAAYWRPGVRFFGPYDYWGQGTQVTVSS | high polyreactivity
10 | QVQLEESGGGLVQAGGSLRLSWAASGSTFVPNAMGWYRQAPGKERELVAAISYSGGTTYYADSVKGRFTISRDNAKNTVYLQMNSLKPEDTAVYYCAARSKGAAAILDDYWGQGTQVTVSS | low polyreactivity
11 | QVQLEESGGGLVQAGGSLRLTCAASGRILGYSAMGWYRQAPGKERELVAAISSGDSTNSADSVKGRFTISRDNAKITVYLQMNSLKPEDTAVYYCAAKGCIWNPYNYWGQGTQVTVSS | low polyreactivity
12 | QVQLEESGGGLVQAGGSLRLTCAASGRTFYNNAMGWYRQAPGKERQLVATISKSGGSTNYADSVKGRFTISRDNAKNTVYLQMNSLKPEDNAVYYCAADTSGGSWGRGRWKYGYWGQGTQVTVSS | high polyreactivity
13 | QVQLEESGGGLVQAGGSLRLTCAPSGTTFSRYVMGWYRQAPGKERELVAAINRSSGSTYYADSVKGRFTISRDNAKNTVYLQMNSLKPEDTAVYYCAALYRKRGSVQYDYWGQGTQVTVSS | high polyreactivity
14 | QVQLEESGGGLVQAGGSLRVSCSASGSTYLDYHMGWYRQAPGQQRELVAAITDSGGRTYYADSVKARFTISRDNAKNTVYFQMKSLKPEDTAVYYCARDRGKITPYDYWGQGTQVTVSS | low polyreactivity
15 | QVQLEESGGGLVQAGGSLSLSCAASGRNMPYNVMAWYIQATGKEREFVAAITGSGGDTYYADSVKGRFTISRDNAKNTVYLQMNSLKPEDTAVYYCAAAPYIGCSFGQTPGSGYWGQGTQVTVSS | low polyreactivity
16 | QVQLEESGGGLVQAGGSLSLSCAASGSILIYNAMGWYRQAPGKERELVAGISRRGASTYYADSVKGRFTISRDNEKKTVYLQMNRLKPEDTAVYYCAALGKYIVAWSGDYWGQGTQVTVSS | low polyreactivity

Row | Sequence | polyreactivity (PSR sort gate)
17 | QVQLEESGGGLVQAGGSRRLSCAASGSIFIANAMGWYRQAAGKEREFVAGISASGSSTYYADSVKVRFTISRDNAKNTVYLQMNILKPEDTAVNYCAAGSYYWGQGTQVTVSS | high polyreactivity
18 | QVQLEESGGGLVQAGGTLRLSCAASGRIFSGYAMGWYRQAPGKERELGAAISSSGGSTYYADSVQGRFTISRDNAKNTVYLQMNSLKPEDTAVYYCAASRSRYSVNWYNYWGQGTQVSVSS | high polyreactivity
19 | QVQLEESGGGLVQAGRSLRFSCAASGRIFPWYTMGWYRPAPGKERELVAVISSGGRTHYADSVKGRFTISRDNAKNTVYLQMNSLKPEDTAVYYCAGESRYQRYDYWRQGTQVTVSS | high polyreactivity
20 | QVQLEESGGGLVQAGVSLRLSCAASGRIFLSNAMGWYRQAPGKEREFVAAISWRGGSTYYADSVKGRFTISRDNAKNTVYLQMNSLKPEDTAVYYCAVDVRYYYGRSYDYWGQGTQVTVSS | high polyreactivity
21 | QVQLEESGGGLVQARGSLRLSCAASGSTFNSYAMGWYRQAPGKERELVAAISSTGGNTYYADSVKGRFTISLDNAKNTVYLQMNSLKPEDTAVYYCNARRYGKVVRSSYNYWGQGTQVTVSS | high polyreactivity
22 | QVQLEESGGRLVQAGGSIRLTCAASGSIFASNTKGWYRQAPGKERELVAGITKIGSSTYYADSVKGRFTISRDNAKNTVYLQMNSLKPEDTAVYYCNAYGPNIYSSRYDYWGQCTQVTVSS | low polyreactivity
23 | QVQLEESGGRLVQAGGSLRLRCAASGLMYTRYVMGWYRQAPGKERELVAVISSGGSTYYADSVKGRFTISRDNAKNTVYLQMNSLIAEDTAVYYCAAYLRSSHVTYDYWGQGTQVTVSS | high polyreactivity
24 | QVQLEESGGRLVQAGGSLRLSCAASGSTFSNNAMGWYRQAPGKERELVAAIRTSGGRTYYADSVKGRFTISRDNAKHTVYLQMNSLKPEDTAVYYCAKRWVYRYGYEYWGQGTQVTVSS | high polyreactivity
25 | QVQLEESGLGLVQAGGSLRLSCAASGFTFYGNAMGSYRKAPGKEREFVAAISSSGASTRYADSVKGRFTISRDNAKNTVYLQMYSLKPEDTAVYYCAADAPAWILEAYGYWGQGTQVTVSS | low polyreactivity
26 | QVQLEESGRGLDQAGVSLRLSCAASVSTFAGYAMGWYRQAPVKERELVATITYSGGSTYYADSVKGRFTISRDNAKNTVYLQMNSLKPEDTAVYYCAKKASDWWGYEYWGQGTQVTVSS | low polyreactivity
27 | QVQLEESGRGLVQAGGSLRLSCAASGFTFNWYAMGWSSQATGKERELVATINSGGSTYYADSVKGRFTISRDNAKNTVYLQMNSLKPEDTAVYYCNRTHRRRYVKSAYNYWGQGTQVTVSS | low polyreactivity
28 | QVQLEESGVGLVQAGGSLRLSSAASGNIFVRYSMGWYRQARGKERELVAAISWSGGRTYYADSVKGRFTISRDKAKNSVYFQMNSLKPEDTAVYYCAAGVPKIGQAGYDYWGQGTQVTVSA | high polyreactivity
29 | QVQLEESRGGLVQAGGSLRLSCAASGLNFRSNAMGWYRQAPGKERELVAAISSSGGSTYYADSVKGRFTISRENAKNTVYLQMNSLKPEDTAVYYCAAEDPADQYDYWGQGTQVTVSS | high polyreactivity
30 | QVQLEESRGGLVQAGGSLRLSCAASGLTSRQYAMGWYSQAPGKERELVAAITLRDGSTYYADSVKGRFTISRDNAKNTDYLQMNSLKPEDTAVYYCARRYLGLYSHFDYWGQGTQVTVSS | high polyreactivity
31 | QVQLEESRGGLVQAGGSLRLSCAASGNIFGSNAMGWYRQAPGKERGLVAAISGSNGGTYYADSVKGRFTISRDYAKNTVYLQMNSLTPEDTAVYFCAAVWYLEDHHDYYYWGQGTQVTVSS | low polyreactivity
32 | QVQLEESVGGLVQAGGSLRLSCAASGRIFRGYAMGWYRQAPGKETELVATISAIGGSTYADSVKGRFTISRDNAKNTVYLQKNSLKPEDTAVYYCNVRKVYRYQFRFEYWGQGTQVTVSS | high polyreactivity
